Data from paper PMC11696221 (Nature Communications, 2025).
Where a chain is given by its changes, count along the chain named.

T1: wild-type KaiC with an N-terminal FLAG epitope (cyanobacteria, UniProt Q79PF4 1-519)
T1 sequence: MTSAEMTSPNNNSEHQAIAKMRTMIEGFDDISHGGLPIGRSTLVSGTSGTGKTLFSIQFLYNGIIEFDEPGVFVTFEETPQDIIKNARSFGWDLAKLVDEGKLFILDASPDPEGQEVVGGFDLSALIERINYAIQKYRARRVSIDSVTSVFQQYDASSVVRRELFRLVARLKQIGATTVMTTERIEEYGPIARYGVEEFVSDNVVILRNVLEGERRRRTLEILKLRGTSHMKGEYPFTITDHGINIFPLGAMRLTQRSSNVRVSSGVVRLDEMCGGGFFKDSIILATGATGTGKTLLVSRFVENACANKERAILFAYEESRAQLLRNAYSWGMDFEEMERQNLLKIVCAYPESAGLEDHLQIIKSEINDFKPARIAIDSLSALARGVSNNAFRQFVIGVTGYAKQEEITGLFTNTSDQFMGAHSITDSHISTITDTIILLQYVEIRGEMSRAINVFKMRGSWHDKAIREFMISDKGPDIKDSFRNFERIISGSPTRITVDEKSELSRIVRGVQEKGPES

T2: pS KaiC (KaiC-EA; S431E, T432A) (cyanobacteria, UniProt Q79PF4 1-519, S431E | T432A)
T2 sequence: T1 sequence with S431E, T432A

T3: KaiC, wild type (no FLAG epitope) (cyanobacteria, UniProt Q79PF4 1-519)
T3 sequence: T1 sequence

B1: biotinylated KaiB (natural protein)
chain: MSPRKTYILKLYVAGNTPNSVRALKTLKNILEVEFQGVYALKVIDVLKNPQLAEEDKILATPTLAKVLPLPVRRIIGDLSDREKVLIGLDLLYGELQDSDDF
modifications: biotin (amine-reactive EZ-Link-Sulfo-NHS-LC-Biotin, 50 x molar excess; sites not determined)
B2: FITC-labeled KaiB K25C (natural protein)
chain: B1 chain with K25C
modifications: FITC label

How the values were obtained:
[1] = target: T1, wild-type KaiC with an N-terminal FLAG …; test: pull-down
[2] = target: T2, pS KaiC (KaiC-EA; S431E, T432A); test: pull-down
[3] = target: T3, KaiC, wild type (no FLAG epitope); test: fluorescence polarisation
[4] = target: T1, wild-type KaiC with an N-terminal FLAG …; test: fluorescence polarisation

Row | Binder | binding result [1] | binding result [2] | binding result [3] | binding result [4]
1 | B1 | binds | binds |  | 
2 | B2 |  |  | binds | binds
